Experimental data from article PMC7591920 (2020).
Bridge positions count the residues as written; N and C are the ends. Ends that are not written are not given here.

T1: GST-hTEAD1(209–426) (human, UniProt P28347 209-426)
T1 chain: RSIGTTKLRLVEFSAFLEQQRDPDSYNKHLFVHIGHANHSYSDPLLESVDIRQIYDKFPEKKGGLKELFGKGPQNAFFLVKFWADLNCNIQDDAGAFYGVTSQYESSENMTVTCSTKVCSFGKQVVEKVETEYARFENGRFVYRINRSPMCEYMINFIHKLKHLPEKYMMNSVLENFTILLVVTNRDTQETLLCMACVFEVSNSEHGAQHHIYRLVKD

T2: mouse TEAD4(210–427), as purified (SPR) (mouse, UniProt Q62296 210-427)
T2 chain: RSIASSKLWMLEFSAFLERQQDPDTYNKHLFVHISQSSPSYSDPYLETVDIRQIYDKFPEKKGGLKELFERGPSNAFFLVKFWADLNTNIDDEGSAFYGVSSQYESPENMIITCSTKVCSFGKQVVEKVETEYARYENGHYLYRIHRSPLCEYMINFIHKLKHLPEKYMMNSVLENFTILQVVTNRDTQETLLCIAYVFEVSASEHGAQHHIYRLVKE


Assays:
GST-hTEAD1(209–426) = target: T1, GST-hTEAD1(209–426); test: SPR
[1] = target: T2, mouse TEAD4(210–427), as purified (SPR); test: SPR

Kd (GST-hTEAD1(209–426)) | Kd [1] | Binder
15 µM | 11 µM | SVDDHFAKALGDTWLQIKAA (lactam (positions not given here); not fully specified (bridges); also: lactam crosslink of 5 atoms, residue identities at the bridge ends not given here) [macrocyclic two-helix motif peptide 4A (lactam 235–250, 5 crosslinking atoms)]
4.8 µM | 3.2 µM | SVDDHFAKALGDTWLQIKAA (lactam 3-18) [macrocyclic two-helix motif peptide 4C (lactam 235–250, seven-atom crosslink)]
1.5 µM | 1 µM | SVEDHFAKALGDTWLQIKAA (lactam (positions not given here); not fully specified (bridges)) [macrocyclic two-helix motif peptide 4D (lactam 235–250, seven-atom crosslink)]
14 µM | 11 µM | SVDDHFAKALGDTWLQIKAA (lactam (positions not given here); not fully specified (bridges); also: lactam crosslink of 6 atoms, residue identities at the bridge ends not given here) [macrocyclic two-helix motif peptide 4B (lactam 235–250, 6 crosslinking atoms)]
